Paper PMC4703863

Key:
His6-T7 RNA polymerase [1] = molecular target: T1, His6-T7 RNA polymerase (bacteriophage T7, UniProt P00573 1-883); assay: smFRET; no NTPs; ~0.95 FRET; Transcription-scanning buffer: 40 mM Tris-HCl pH 7.9, 5 mM Mg2+, 60 mM Na+, 0.2 mg/ml BSA, 2 mM Trolox, PCA/PCD; 0.5-5 nM RNAP, 20 nM AID; temperature and ssDNA
His6-T7 RNA polymerase [2] = molecular target: T1, His6-T7 RNA polymerase; assay: smFRET; no NTPs; ~0.2 FRET; Transcription-scanning buffer: 40 mM Tris-HCl pH 7.9, 5 mM Mg2+, 60 mM Na+, 0.2 mg/ml BSA, 2 mM Trolox, PCA/PCD; 0.5-5 nM RNAP, 20 nM AID; temperature and ssDNA
His6-T7 RNA polymerase [3] = molecular target: T1, His6-T7 RNA polymerase; assay: smFRET; no NTPs; ~0.4 FRET; Transcription-scanning buffer: 40 mM Tris-HCl pH 7.9, 5 mM Mg2+, 60 mM Na+, 0.2 mg/ml BSA, 2 mM Trolox, PCA/PCD; 0.5-5 nM RNAP, 20 nM AID; temperature and ssDNA
His6-T7 RNA polymerase [4] = molecular target: T1, His6-T7 RNA polymerase; assay: smFRET; no NTPs; ~0.85 FRET; Transcription-scanning buffer: 40 mM Tris-HCl pH 7.9, 5 mM Mg2+, 60 mM Na+, 0.2 mg/ml BSA, 2 mM Trolox, PCA/PCD; 0.5-5 nM RNAP, 20 nM AID; temperature and ssDNA
His6-T7 RNA polymerase [5] = molecular target: T1, His6-T7 RNA polymerase; assay: smFRET; no NTPs; Transcription-scanning buffer: 40 mM Tris-HCl pH 7.9, 5 mM Mg2+, 60 mM Na+, 0.2 mg/ml BSA, 2 mM Trolox, PCA/PCD; 0.5-5 nM RNAP, 20 nM AID; temperature and ssDNA

T1 sequence (P00573 whole entry): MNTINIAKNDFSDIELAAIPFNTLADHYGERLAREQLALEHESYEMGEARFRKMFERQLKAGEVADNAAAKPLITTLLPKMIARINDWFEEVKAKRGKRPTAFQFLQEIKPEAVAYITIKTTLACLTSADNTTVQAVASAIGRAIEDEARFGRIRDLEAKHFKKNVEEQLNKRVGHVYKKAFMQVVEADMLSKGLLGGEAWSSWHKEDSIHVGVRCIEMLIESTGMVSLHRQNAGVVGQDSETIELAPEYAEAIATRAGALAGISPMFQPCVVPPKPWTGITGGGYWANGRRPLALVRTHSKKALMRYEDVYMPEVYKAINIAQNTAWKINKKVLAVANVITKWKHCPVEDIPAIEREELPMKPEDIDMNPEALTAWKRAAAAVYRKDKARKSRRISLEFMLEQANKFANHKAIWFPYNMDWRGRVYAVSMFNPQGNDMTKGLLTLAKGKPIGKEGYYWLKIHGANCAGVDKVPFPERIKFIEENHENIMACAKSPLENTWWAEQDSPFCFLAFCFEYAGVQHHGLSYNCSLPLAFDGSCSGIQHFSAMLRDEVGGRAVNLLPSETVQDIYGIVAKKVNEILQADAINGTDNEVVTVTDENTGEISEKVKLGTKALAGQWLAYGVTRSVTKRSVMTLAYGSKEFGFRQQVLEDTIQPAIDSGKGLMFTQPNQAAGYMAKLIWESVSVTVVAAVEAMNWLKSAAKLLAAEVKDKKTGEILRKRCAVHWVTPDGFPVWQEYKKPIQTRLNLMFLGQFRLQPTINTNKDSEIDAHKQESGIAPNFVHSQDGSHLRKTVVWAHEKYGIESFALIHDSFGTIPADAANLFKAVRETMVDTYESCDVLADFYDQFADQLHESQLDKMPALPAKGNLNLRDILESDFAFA

B1: T7 promoter dsDNA shifted 30 bp downstream (9 bp from Cy3 end) (dsDNA)
DNA 1: TTTGGGGAAAGCAAAGAGGAAAGGTGAGGAGGTCAGAGATGCATAATACGACTCACTATAGGGAGAAAA
DNA 2: TTTTCTCCCTATAGTGAGTCGTATTATGCATCTCTGACCTCCTCACCTTTCCTCTTTGCTTTCCCC
Question: Does B1 bind (His6-T7 RNA polymerase [1])?
Answer: binds

B2: 69/66-mer T7 promoter dsDNA (promoter 39 bp from Cy3 end) (dsDNA)
DNA 1: TTTCAGAGATGCATAATACGACTCACTATAGGGAGAAAAGGGGAAAGCAAAGAGGAAAGGTGAGGAGGT
DNA 2: ACCTCCTCACCTTTCCTCTTTGCTTTCCCCTTTTCTCCCTATAGTGAGTCGTATTATGCATCTCTG
Question: Does B2 bind (His6-T7 RNA polymerase [2])?
Answer: binds

B3: T7 promoter dsDNA shifted 10 bp downstream (29 bp from Cy3 end) (dsDNA)
DNA 1: TTTGTGAGGAGGTCAGAGATGCATAATACGACTCACTATAGGGAGAAAAGGGGAAAGCAAAGAGGAAAG
DNA 2: CTTTCCTCTTTGCTTTCCCCTTTTCTCCCTATAGTGAGTCGTATTATGCATCTCTGACCTCCTCAC
Question: Does B3 bind (His6-T7 RNA polymerase [3])?
Answer: binds

B4: T7 promoter dsDNA shifted 20 bp downstream (19 bp from Cy3 end) (dsDNA)
DNA 1: TTTAAGAGGAAAGGTGAGGAGGTCAGAGATGCATAATACGACTCACTATAGGGAGAAAAGGGGAAAGCA
DNA 2: TGCTTTCCCCTTTTCTCCCTATAGTGAGTCGTATTATGCATCTCTGACCTCCTCACCTTTCCTCTT
Question: Does B4 bind (His6-T7 RNA polymerase [4])?
Answer: binds

B5: No-promoter dsDNA 66-mer (dsDNA)
DNA 1: CAGAGATGCAGCCGTCCGTATCCGTATTGTAGAAAAGGGGAAAGCAAAGAGGAAAGGTGAGGAGGT
DNA 2: ACCTCCTCACCTTTCCTCTTTGCTTTCCCCTTTTCTACAATACGGATACGGACGGCTGCATCTCTG
Question: Does B5 bind (His6-T7 RNA polymerase [5])?
Answer: no binding
